Target: the molecule itself
Assay: SEC

Protein | stoichiometry N | binding result
tag-free recombinant human pyridoxal 5'-phosphate-binding protein (PLPBP) (natural protein, pyridoxal 5'-phosphate bound at Lys47 (internal aldimine)) not shown | 2 | 
Strep-tag recombinant human PLPBP (natural protein, pyridoxal 5'-phosphate bound at Lys47 (internal aldimine)) not shown | 2 | 
human PLPBP R41Q mutant (natural protein, fully saturated with PLP after purification) not shown |  | binds
